Changes are numbered by the printed parent chain. Names may count otherwise.
T1: MQDYLT
T1 chain: MQDYLT

T2: MADWLTFQKKHI
T2 chain: MADWLTFQKKHI

T3: MADY
T3 chain: MADY

T4: MADYLT
T4 chain: MADYLT

T5: MQDWLTFQKKHI
T5 chain: MQDWLTFQKKHI

B1: MetAP-GTG (protein)
chain: AISIKTPEDIEKMRVAGRLAAEVLEMIEPYVKPGVSTGELDRICNDYIVNEQHAVSACLGYHGYPKSVCISINEVVCHGIPDDAKLLKDGDIVNIDVTVIKDGFHGDTSKMFIVGKPTIMGERLCRITQESLYLALRMVKPGINLREIGAAIQKFVEAEGFSVVREGCGHGIGRGFHEEPQVLHYDSRETNVVLKPGMTFTIEPTVNAGKKEIRTMKDGWTVKTKDRSLSAGYEHTIVVTDNGCEILTLRKDDTIPAIISHDE
B2: MetAP-YMQ (wild type E. coli methionine aminopeptidase) (protein)
chain: B1 chain with G167Y, T205M, G232Q
B3: MetAP-M206G-Q233G (protein)
chain: B1 chain with G167Y, T205G
B4: MetAP-M206T-Q233T (protein)
chain: B1 chain with G167Y, G232T
B5: MetAP-M206T-Q233G (protein)
chain: B1 chain with G167Y

Molecular target: T1, MQDYLT

| Protein | Specific activity (unit/mg) |
| --- | --- |
| B1 | 0.23 unit/mg |
| B2 | 0.43 unit/mg |
| B3 | 0.29 unit/mg |
| B4 | 0.13 unit/mg |
| B5 | 0.42 unit/mg |

Molecular target: T2, MADWLTFQKKHI

| Protein | Specific activity (unit/mg) |
| --- | --- |
| B1 | 9.8 unit/mg |
| B2 | 85 unit/mg |
| B3 | 3.28 unit/mg |
| B5 | 73 unit/mg |

Molecular target: T3, MADY

| Protein | Specific activity (unit/mg) |
| --- | --- |
| B1 | 1.68 unit/mg |
| B2 | 138 unit/mg |
| B3 | 0.51 unit/mg |
| B4 | 0.38 unit/mg |
| B5 | 72 unit/mg |

Molecular target: T4, MADYLT

| Protein | Specific activity (unit/mg) |
| --- | --- |
| B1 | 2.5 unit/mg |
| B2 | 138 unit/mg |
| B3 | 0.29 unit/mg |
| B4 | 0.12 unit/mg |
| B5 | 116 unit/mg |

Molecular target: T5, MQDWLTFQKKHI

| Protein | Specific activity (unit/mg) | specific activity relative to that for MADWLTFQKKHI |
| --- | --- | --- |
| B1 | 4.24 unit/mg | The specific activity of MetAP-GTG on the dodecapeptide MQDWLTFQKKHI is 43% of that for MADWLTFQKKHI |
| B2 | 0.62 unit/mg |  |
| B3 | 0.5 unit/mg |  |
| B5 | 0.59 unit/mg |  |
